Measured values published in the DeepSol protein solubility set.

Test: soluble on expression in E. coli; label from the status in PepcDB or PDB records

Sequence	soluble on expression in E. coli
MSLSLRVRQIDRREWLLAQTATECQRHGREATLEYPTRQGMWVRLSDAEKRWSAWIKPGDWLEHVSPALAGAAVSAGAEHLVVPWLAATERPFELPVPHLSCRRLCVENPVPGSALPEGKLLHIMSDRGGLWFEHLPELPAVGGGRPKMLRWPLRFVIGSSDTQRSLLGRIGIGDVLLIRTSRAEVYCYAKKLGHFNRVEGGIIVETLDIQHIEEENNTTETAETLPGLNQLPVKLEFVLYRKNVTLAELEAMGQQQLLSLPTNAELNVEIMANGVLLGNGELVQMNDTLGVEIHEWLSESGNGEEGHHHHHH	soluble
MARKLFTSESVTEGHPDKICDQISDAVLDAIFSQDPMARVACETAVTTGLVLVTGEITTNCYVDIPKIVRSTIREIGYDRAKYGFDCDTCAVLTSIDEQSPDIAMGVNKALEAKTGEMSDEEIEAIGAGDQGMMFGFACDETPELMPMPISLAHKLAMRLSQVRKNGTLNYLRPDGKSQVTVEYDGDKPVRVDTVLISTQHGPEVDYDTIKRDVIEHVIKPVIPAELLDSKTKYLVNPTGRFVIGGPQGDSGLTGRKIIVDTYGGYARHGGGAFSGKDPTKVDRSAAYAARYVAKNIVAAGLARKCEVQLAYAIGVARPVSVRVDTFGTGIIPEEKIESLVNKYFDLRPAGIIKTLDLRRPIYKQTAAYGHFGRTDIDLPWERTDKPKS	not soluble
MGSDKIHHHHHHMAHTITIVGLGNYGIDDLPLGIYKFLKTQDKVYARTLDHPVIESLQDELTFQSFDHVYEAHDQFEDVYNDIVAQLVEAANEKDIVYAVPGHPRVAETTTVKLLALAKDNTDIDVKVLGGKSFIDDVFEAVNVDPNDGFTLLDATSLQEVTLNVRTHTLITQVYSAMVAANLKITLMERYPDDYPVQIVTGARSDGADNVVTCPLYELDHDENAFNNLTSVFVPKIITSTYLYHDFDFATEVIDTLVDEDKGCPWDKVQTHETLKRYLLEETFELFEAIDNEDDWHMIEELGDILLQVLLHTSIGKKEGYIDIKEVITSLNAKMIRRHPHIFGDANAETIDDLKEIWSKAKDAEGKQPRVKFEKVFAEHFLNLYEKTKDKSFDEASLKQWLEKGESNT	not soluble
SLRFVDEYRAPEQVMQLIEHLRERASHLSYTAERPLRIMEVCGGHTHAIFKFGLDQLLPENVEFIHGPGCPVCVLPMGRIDTCVEIASHPEVIFCTFGDAMRVPGKQGSLLQAKARGADVRIVYSPMDALKLAQENPTRKVVFFGLGFETTMPTTAITLQQAKARDVQNFYFFCQHITLIPTLRSLLEQPDNGIDAFLAPGHVSMVIGTDAYNFIASDFHRPLVVAGFEPLDLLQGVVMLVQQKIAAHSKVENQYRRVVPDAGNLLAQQAIADVFCVNGDSEWRGLGVIESSGVHLTPDYQRFDAEAHFRPAPQQVCDDPRARCGEVLTGKCKPHQCPLFGNTCNPQTAFGALMVSSEGACAAWYQYRQQESEA	soluble
MAHHHHHHMGCKNSKAREPPADTVTAAQANIATNKNSSTAPTLSPAQHHAKQTGETKRNNAASPASRGNNGEASENESRSEQPKKALGPGGNDVKQAASNSPSKQELDDEGNPLLLPNGDWVRTEGTPFYYSVEENLYFHPPSCQFYDPTNGMWYDPEKDEWYYDDENGAQE	soluble
MIFRFGFVSNAMSLWDASPAKTLTFARYSKLSKTERKEALLTVTKANLRNTMRTLHYIIGHGIPLYRFSSSIVPLATHPDVMWDFVTPFQKEFREIGELVKTHQLRTSFHPNQFTLFTSPKESVTKNAVTDMAYHYRMLEAMGIADRSVINIHIGGAYGNKDTATAQFHQNIKQLPQEIKERMTLENDDKTYTTEETLQVCEQEDVPFVFDFHHFYANPDDHADLNVALPRMIKTWERIGLQPKVHLSSPKSEQAIRSHADYVDANFLLPLLERFRQWGTNIDFMIEAKQKDKALLRLMDELSSIRGVKRIGGGALQWKS	not soluble
MSVCLFLRFCSLRVRCRRLMCRPGEIIHIMWSALAWRWCAVMLTGSQRYAFCNDRFHNRKITRLRNNFMPNILPTDLCANTPTLAIHDNRGFAIRTLAYNRRDHNETIGELISRNRYNASGQLIASRDPRLEVDNFRYQYSLSGVPLRTDSVDSGSTLQLADSAGRTVLTLDAHHTRRWVEYETGEHSLGRPLSYHEQAKGGLKTVTDRFFYATNSEQDKSGNLNGQCVRHYDSAGLQALINQSIIGVPLQQQRRLLTNPKGPVDWFGEKENWGARLSEQPFVSHSTTDALGQLLTQTDAKGHIQRMAYNRAGQLIGSWLTIKNSAEQVILRSLTYSAAGQKLREESGNGVITEYRYEPQTQRLIGIKTTRPAKKDRPTRLQDLRYDYDPVGNILAIHNDAEATRFYRNQKIVPETTYRYDALYQLIEATGREADTNGIQNSQLPALASLNDSNQFVNYTRSYHYDRAGNLLKIQHTGASQYSTHITVSDSSNHGIQQQEGITARDIRSQFDAAGNQQQLQPGQPLRWNSRNQLQQVEPVPRNDGISDSESYLYDGGGSRVVKTSLHKTHNAIQTRSVIYLAGLELRSQYNGNNLTEDFQVITVGAAGRAQVRVLHWERGQPVDIVNDQLRYSFDNHLGSALIELDSDGDIISQEEYYPFGGTAVLASRNTVEAKYKTVRYSGKERDATGLYYYGYRYYQPWLGRWLSADPAGTIDGLNLYRMVRNNPVGLMDGDGLMTDKLLAKHEANFAKKNISSMAELKSEIEKLGLLPADSKQLFLHLNGGESDDEPSGSSGSSGSSEILENTSPHKIKNFHFISEINLATMPRPYYKDFSSTEDMLESAERLKAYGSIDTLLTLDLTSEDIPEFTSILADKGINYIAEKQYEIIDYFSEDELSSENIDRIVNMIKTIQNNNHKVGIHCAAGNGRSGLIATAMIINKKYTQSRINSFEEKNKLKEIIDKNKNEINVDAITYDAMKLVRKTNPFAGERTTDIKAAREYSRYLYSKQNR	not soluble
QMEEGFVCFKLLYDVKKNRISIDDAVAENGVLPLMKHISWQFDKLPHMLIAGGTGGGKTYFMLTIIKACVGLGADVRILDPKNADLADLEEVLPKKVYSQKNGILMCLRKSVDGMMERMDEMKQMSNYKTGENYAYLGLKPVFIFFDEYVAFMDLLDMKERNEALSYMKQLVMLGRQAGYFLVLGAQRPDA	not soluble
MSLAVIKQDDLIQSVADALQFISYYHPVDFIQAMHEAYLREESPAARDSMAQILINSRMCATGHRPICQDTGIVTVFVRVGMDVRWDGATMSVDDMINEGVRRAYNLPENVLRASILADPAGARKNTKDNTPAVIHYSIVPGDKVEVDVAAKGGGSENKSKMAMLNPSDSIVDWVLKTVPTMGAGWCPPGMLGIGIGGTAEKAAVMAKEVLMDPIDIHELKARGPQNRIEELRLELFEKVNQLGIGAQGLGGLTTVLDVKIMDYPTHAASLPVCMIPNCAATRHAHFVLDGSGPAELEAPSLDAYPEIVWEAGPSARRVDLDKITPEEVQSWKPGETLLLNGKMLTGRDAAHKRMVDMLNKGETLPVDLKGRFIYYVGPVDPVGDEVVGPAGPTTATRMDKFTRQILEQTGLLGMIGKSERGPIAIEAIKDNKAVYLMAVGGAAYLVAQAIKKSKVLAFAELGMEAIYEFEVKDMPVTVAVDTNGESVHITGPAVWQKKIAESLAVEVKEGGSHHHHHH	soluble
MIFLNRERKGETNDHFDVNRVKFDDLGIPQDTGGLNRIRFKGENLGIMPTQLGHITPWLYRHFEYAYHVALQFNQHQKFQKLQKLRKLQKELPIAERAGEIVELLKTNQVLIVAGDTGCGKSTQVPQYLLKAGFTGVACTQPRRIACTALARRVAYETLNQYGSEVAFQIRFETTKSQKTKLLFLTEGLLLRQMEKDSLLEKYNVIILDEVHERHLTSDLLIGLLRDLCTKRDDLKLILMSATINLDLFKGYFEGAPVVQVPGRLFPIDVRWHPIKQFIDQSDKKTHKIDPEPYLKILELIDKQFPSTQRGDALIFLNGVAEISMVAEHLKNYAELTNGWIILMLHSTLSVEEQDKVFDQAPVGIRKCILSTNVAETSVTIDGIRFVIDSGKVNLIKHEPGTGTQKLTEFWVSKASANQRKGRAGRTGPGICYRLYSQEQFEKMDDFTVSEINRVSLQEMALKMISLNLGLDPRTFPFIEKPSEDVLNEGLEVLKFQRVLRSDRGDILTLTALGNMVSKLPVEVPIAKMLVYGCVVDELEVMLTVAAGLSVQSPFTNRSYRELEIVERRASLTSPLGDPFTLISIFREWVLQKAFEGTARRWTMENGIDEHRLYEISKLRAQYRQILEDAGLVEKASAAETGEDDSRQRRIDQGEKRKLFDLKKSQRNNDRRQKVLNANKHFDKILEDKEEEDLEAEKDPLKADVKTVEFLLSHKQRDVENIRKTHKISRKTAEVVRVIIAAGLYPNFSILDPVNKYGYGQEMFTHTRLKPFTQIHPNSSIAQYHPETIDPRQGSDGFSRLHQIPFYGLLLETTKPYICNVMPVPAVYTLLVAQKIVIEDDWSQLSIDDFLELRFRSSTDCRSVLLDAKEIRYELTKGLAAKLVGEAGFSGRRRLAKYIDLLNQSIVEKGIEVAVRRNVHPPKVLTGIGIHSPDGGIDKEEDVDDLVQRFERDQEPVHSAREEELEDQKVLDELRADVMCPPTRDMIEEAEKLKELKKKEIPKESYYEKLLKRQKAKEDDEKTEKKPKLEPLDTMEE	soluble
AIAVHRDPAEELWCELWQPGVDITRKMNAIFGLKEIGTERAVTLLCAALLDARERSVLVRHEIAYVLGQIQSAASIKTLTDRLIDTDENSIVRHECGEALGAVRAFAVRPILQKLCGDAVPEVRETCVLALERLRWLEEKSTNEERVRETSAKAFKLFETVDPAPAFVAPDDLEASWSNAELGELLLNENEPLFRRYRALFTLRDRNTDDTAGVIAAALRRDTSSALFRHEVAYVLGQMSRACTLPALESALADTHEHAMVRHEAAEAIGAIGNSSACDILRRFLRDANVIVRESCQVALDIAGISDDCQFMD	soluble
MGSDKIHHHHHHMYRVFVFDLDGTLLNDNLEISEKDRRNIEKLSRKCYVVFASGRMLVSTLNVEKKYFKRTFPTIAYNGAIVYLPEEGVILNEKIPPEVAKDIIEYIKPLNVHWQAYIDDVLYSEKDNEEIKSYARHSNVDYRVEPNLSELVSKMGTTKLLLIDTPERLDELKEILSERFKDVVKVFKSFPTYLEIVPKNVDKGKALRFLRERMNWKKEEIVVFGDNENDLFMFEEAGLRVAMENAIEKVKEASDIVTLTNNDSGVSYVLERISTDCLDE	not soluble
MGSDKIHHHHHHMQATDIATQQALAAALGVNRSAVTQAKNRDAIPQKWILQLARAYHLAPDWLEFGKGRQHQPPTSLHDPETVLVPRVKAVLSAGGGSLDVSGGVVENLPFRYDWLARRGHPAHMVLMNVTGDSMEPGIRHGDTLLIDQSHVTAQTGGVYAFGYEDSILVKRFGRDADAILLLSDNTAYAPIRIRGDEADLLHVIGKIVWLCRAVQ	not soluble
MAKKTSSLLSRRRTRRPGEPPLDLGSIPWLGYALDFGKDAASFLTRMKEKHGDIFTILVGGRYVTVLLDPHSYDAVVWEPRTRLDFHAYAIFLMERIFDVQLPHYSPSDEKARMKLTLLHRELQALTEAMYTNLHAVLLGDATEAGSGWHEMGLLDFSYSFLLRAGYLTLYGIEALPRTHESQAQDRVHSADVFHTFRQLDRLLPKLARGSLSVGDKDHMCSVKSRLWKLLSPARLARRAHRSKWLESYLLHLEEMGVSEEMQARALVLQLWATQGNMGPAAFWLLLFLLKNPEALAAVRGELESILWQAEQPVSQTTTLPQKVLDSTPVLDSVLSESLRLTAAPFITREVVVDLAMPMADGREFNLRRGDRLLLFPFLSPQRDPEIYTDPEVFKYNRFLNPDGSEKKDFYKDGKRLKNYNMPWGAGHNHCLGRSYAVNSIKQFVFLVLVHLDLELINADVEIPEFDLSRYGFGLMQPEHDVPVRYRIRPHHHH	soluble
MSLSWRLQTGSEKAELQELNARLYDYVCRVRELERENLLLEEELRSRLSREDRWAEDQALYAEEARSLRQQLDELNWSTALAEGERDALRRELLELQREGVEAGTARSRLDAELGAQRRELEEALGARAALEALLGRLETERRDLDAAHERQVRDLRARAASLTMHFRARATSPAAPPPRLRDVHDSYALLVAESWRESVQLYEDEVRELEQALRRGQESRLQAEDEARLCAQEADALRNQALELEQLRARLEDELLRMREEYGMQAEERQRVIDSLEDEKEALTLAMADRLRDYQELLQVKTGLSLEVATYRALLEGESNPEILIWTENIENVPQEPRNTSYRYTNSVLQRKNEKNLFPRREGHHHHHH	not soluble
